# Experimental data: US20260015399A1 (Boehringer Ingelheim, published 2026)
# *1 amine or outer side, *2 acyl side, *3 side chain or, on linkers, in order; H or OH if unused. Side-chain parts run from the residue outwards. The star is where a group is joined. C18 diacid = O=C(O)CCCCCCCCCCCCCCCCC(=O)*; γGlu = O=C(O)[C@H](CCC(=O)[*:2])N[*:1]; Isovaleryl = CC(C)CC(=O)*; Ahx = NCCCCCC(=O)O
# T1: human NPY2 receptor (human, UniProt P49146 1-381)
# T1 construct: whole, on cells; also called hNPY2-R; hNPY2R
# T1 sequence (looked up): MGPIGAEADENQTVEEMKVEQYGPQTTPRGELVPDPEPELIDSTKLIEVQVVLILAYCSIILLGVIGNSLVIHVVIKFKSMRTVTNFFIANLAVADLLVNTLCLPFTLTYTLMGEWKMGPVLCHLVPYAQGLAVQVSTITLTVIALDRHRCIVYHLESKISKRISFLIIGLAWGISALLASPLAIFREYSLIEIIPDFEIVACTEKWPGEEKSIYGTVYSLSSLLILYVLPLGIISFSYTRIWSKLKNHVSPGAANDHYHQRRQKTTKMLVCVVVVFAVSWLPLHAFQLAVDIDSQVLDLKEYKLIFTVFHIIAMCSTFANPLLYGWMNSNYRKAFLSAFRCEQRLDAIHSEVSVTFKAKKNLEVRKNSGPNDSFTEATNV
# Molecular target: T1, human NPY2 receptor
# Test: RLB: displacement of 125I-PYY(1-36) from hNPY2R membranes
row,Binder,Ki [nM]
1,Isovaleryl-APEK([Ahx-γGlu-C18 diacid])PEEDASPEALQEYYVSLRHYYNWLTRQRY-NH2 (SMILES CC(C)CC(=O)N[C@@H](C)C(=O)N1CCC[C@H]1C(=O)N[C@@H](CCC(=O)O)C(=O)N[C@@H](CCCCNC(=O)CCCCCNC(=O)CC[C@H](NC(=O)CCCCCCCCCCCCCCCCC(=O)O)C(=O)O)C(=O)N1CCC[C@H]1C(=O)N[C@@H](CCC(=O)O)C(=O)N[C@@H](CCC(=O)O)C(=O)N[C@@H](CC(=O)O)C(=O)N[C@@H](C)C(=O)N[C@@H](CO)C(=O)N1CCC[C@H]1C(=O)N[C@@H](CCC(=O)O)C(=O)N[C@@H](C)C(=O)N[C@@H](CC(C)C)C(=O)N[C@@H](CCC(N)=O)C(=O)N[C@@H](CCC(=O)O)C(=O)N[C@@H](Cc1ccc(O)cc1)C(=O)N[C@@H](Cc1ccc(O)cc1)C(=O)N[C@H](C(=O)N[C@@H](CO)C(=O)N[C@@H](CC(C)C)C(=O)N[C@@H](CCCNC(=N)N)C(=O)N[C@@H](Cc1c[nH]cn1)C(=O)N[C@@H](Cc1ccc(O)cc1)C(=O)N[C@@H](Cc1ccc(O)cc1)C(=O)N[C@@H](CC(N)=O)C(=O)N[C@@H](Cc1c[nH]c2ccccc12)C(=O)N[C@@H](CC(C)C)C(=O)N[C@H](C(=O)N[C@@H](CCCNC(=N)N)C(=O)N[C@@H](CCC(N)=O)C(=O)N[C@@H](CCCNC(=N)N)C(=O)N[C@@H](Cc1ccc(O)cc1)C(N)=O)[C@@H](C)O)C(C)C) [Compound 39],2.73
2,Isovaleryl-APEK([Ahx-γGlu-C18 diacid])PEEDATPEELQEYYVSLRHYYNWLTRQRY-NH2 (SMILES CC(C)CC(=O)N[C@@H](C)C(=O)N1CCC[C@H]1C(=O)N[C@@H](CCC(=O)O)C(=O)N[C@@H](CCCCNC(=O)CCCCCNC(=O)CC[C@H](NC(=O)CCCCCCCCCCCCCCCCC(=O)O)C(=O)O)C(=O)N1CCC[C@H]1C(=O)N[C@@H](CCC(=O)O)C(=O)N[C@@H](CCC(=O)O)C(=O)N[C@@H](CC(=O)O)C(=O)N[C@@H](C)C(=O)N[C@H](C(=O)N1CCC[C@H]1C(=O)N[C@@H](CCC(=O)O)C(=O)N[C@@H](CCC(=O)O)C(=O)N[C@@H](CC(C)C)C(=O)N[C@@H](CCC(N)=O)C(=O)N[C@@H](CCC(=O)O)C(=O)N[C@@H](Cc1ccc(O)cc1)C(=O)N[C@@H](Cc1ccc(O)cc1)C(=O)N[C@H](C(=O)N[C@@H](CO)C(=O)N[C@@H](CC(C)C)C(=O)N[C@@H](CCCNC(=N)N)C(=O)N[C@@H](Cc1c[nH]cn1)C(=O)N[C@@H](Cc1ccc(O)cc1)C(=O)N[C@@H](Cc1ccc(O)cc1)C(=O)N[C@@H](CC(N)=O)C(=O)N[C@@H](Cc1c[nH]c2ccccc12)C(=O)N[C@@H](CC(C)C)C(=O)N[C@H](C(=O)N[C@@H](CCCNC(=N)N)C(=O)N[C@@H](CCC(N)=O)C(=O)N[C@@H](CCCNC(=N)N)C(=O)N[C@@H](Cc1ccc(O)cc1)C(N)=O)[C@@H](C)O)C(C)C)[C@@H](C)O) [Compound 38],12.4
3,Isovaleryl-APEK([Ahx-γGlu-C18 diacid])PEEDAEPEELQRYYTSLRHYYQWLTRQRY-NH2 (SMILES CC(C)CC(=O)N[C@@H](C)C(=O)N1CCC[C@H]1C(=O)N[C@@H](CCC(=O)O)C(=O)N[C@@H](CCCCNC(=O)CCCCCNC(=O)CC[C@H](NC(=O)CCCCCCCCCCCCCCCCC(=O)O)C(=O)O)C(=O)N1CCC[C@H]1C(=O)N[C@@H](CCC(=O)O)C(=O)N[C@@H](CCC(=O)O)C(=O)N[C@@H](CC(=O)O)C(=O)N[C@@H](C)C(=O)N[C@@H](CCC(=O)O)C(=O)N1CCC[C@H]1C(=O)N[C@@H](CCC(=O)O)C(=O)N[C@@H](CCC(=O)O)C(=O)N[C@@H](CC(C)C)C(=O)N[C@@H](CCC(N)=O)C(=O)N[C@@H](CCCNC(=N)N)C(=O)N[C@@H](Cc1ccc(O)cc1)C(=O)N[C@@H](Cc1ccc(O)cc1)C(=O)N[C@H](C(=O)N[C@@H](CO)C(=O)N[C@@H](CC(C)C)C(=O)N[C@@H](CCCNC(=N)N)C(=O)N[C@@H](Cc1c[nH]cn1)C(=O)N[C@@H](Cc1ccc(O)cc1)C(=O)N[C@@H](Cc1ccc(O)cc1)C(=O)N[C@@H](CCC(N)=O)C(=O)N[C@@H](Cc1c[nH]c2ccccc12)C(=O)N[C@@H](CC(C)C)C(=O)N[C@H](C(=O)N[C@@H](CCCNC(=N)N)C(=O)N[C@@H](CCC(N)=O)C(=O)N[C@@H](CCCNC(=N)N)C(=O)N[C@@H](Cc1ccc(O)cc1)C(N)=O)[C@@H](C)O)[C@@H](C)O) [Compound 41],19.8
4,Isovaleryl-APAK([Ahx-γGlu-C18 diacid])PEAAAEPEELQRYYVSLRHYYNWLTRQRY-NH2 (SMILES CC(C)CC(=O)N[C@@H](C)C(=O)N1CCC[C@H]1C(=O)N[C@@H](C)C(=O)N[C@@H](CCCCNC(=O)CCCCCNC(=O)CC[C@H](NC(=O)CCCCCCCCCCCCCCCCC(=O)O)C(=O)O)C(=O)N1CCC[C@H]1C(=O)N[C@@H](CCC(=O)O)C(=O)N[C@@H](C)C(=O)N[C@@H](C)C(=O)N[C@@H](C)C(=O)N[C@@H](CCC(=O)O)C(=O)N1CCC[C@H]1C(=O)N[C@@H](CCC(=O)O)C(=O)N[C@@H](CCC(=O)O)C(=O)N[C@@H](CC(C)C)C(=O)N[C@@H](CCC(N)=O)C(=O)N[C@@H](CCCNC(=N)N)C(=O)N[C@@H](Cc1ccc(O)cc1)C(=O)N[C@@H](Cc1ccc(O)cc1)C(=O)N[C@H](C(=O)N[C@@H](CO)C(=O)N[C@@H](CC(C)C)C(=O)N[C@@H](CCCNC(=N)N)C(=O)N[C@@H](Cc1c[nH]cn1)C(=O)N[C@@H](Cc1ccc(O)cc1)C(=O)N[C@@H](Cc1ccc(O)cc1)C(=O)N[C@@H](CC(N)=O)C(=O)N[C@@H](Cc1c[nH]c2ccccc12)C(=O)N[C@@H](CC(C)C)C(=O)N[C@H](C(=O)N[C@@H](CCCNC(=N)N)C(=O)N[C@@H](CCC(N)=O)C(=O)N[C@@H](CCCNC(=N)N)C(=O)N[C@@H](Cc1ccc(O)cc1)C(N)=O)[C@@H](C)O)C(C)C) [Compound 43],2.49

# Stronger by Ki, values ahead:
row,Ki [nM],Binder
1,1.25,Isovaleryl-APAK([Ahx-γGlu-C18 diacid])PEEAATPEEIQRYYVSLRHYYNWLTRQRY-NH2 (SMILES CC[C@H](C)[C@H](NC(=O)[C@H](CCC(=O)O)NC(=O)[C@H](CCC(=O)O)NC(=O)[C@@H]1CCCN1C(=O)[C@@H](NC(=O)[C@H](C)NC(=O)[C@H](C)NC(=O)[C@H](CCC(=O)O)NC(=O)[C@H](CCC(=O)O)NC(=O)[C@@H]1CCCN1C(=O)[C@H](CCCCNC(=O)CCCCCNC(=O)CC[C@H](NC(=O)CCCCCCCCCCCCCCCCC(=O)O)C(=O)O)NC(=O)[C@H](C)NC(=O)[C@@H]1CCCN1C(=O)[C@H](C)NC(=O)CC(C)C)[C@@H](C)O)C(=O)N[C@@H](CCC(N)=O)C(=O)N[C@@H](CCCNC(=N)N)C(=O)N[C@@H](Cc1ccc(O)cc1)C(=O)N[C@@H](Cc1ccc(O)cc1)C(=O)N[C@H](C(=O)N[C@@H](CO)C(=O)N[C@@H](CC(C)C)C(=O)N[C@@H](CCCNC(=N)N)C(=O)N[C@@H](Cc1c[nH]cn1)C(=O)N[C@@H](Cc1ccc(O)cc1)C(=O)N[C@@H](Cc1ccc(O)cc1)C(=O)N[C@@H](CC(N)=O)C(=O)N[C@@H](Cc1c[nH]c2ccccc12)C(=O)N[C@@H](CC(C)C)C(=O)N[C@H](C(=O)N[C@@H](CCCNC(=N)N)C(=O)N[C@@H](CCC(N)=O)C(=O)N[C@@H](CCCNC(=N)N)C(=O)N[C@@H](Cc1ccc(O)cc1)C(N)=O)[C@@H](C)O)C(C)C) [Compound 36]
2,1.98,Isovaleryl-APEK([Ahx-γGlu-C18 diacid])PEEPATPEELQRYYVSLRHYYNWLTRQRY-NH2 (SMILES CC(C)CC(=O)N[C@@H](C)C(=O)N1CCC[C@H]1C(=O)N[C@@H](CCC(=O)O)C(=O)N[C@@H](CCCCNC(=O)CCCCCNC(=O)CC[C@H](NC(=O)CCCCCCCCCCCCCCCCC(=O)O)C(=O)O)C(=O)N1CCC[C@H]1C(=O)N[C@@H](CCC(=O)O)C(=O)N[C@@H](CCC(=O)O)C(=O)N1CCC[C@H]1C(=O)N[C@@H](C)C(=O)N[C@H](C(=O)N1CCC[C@H]1C(=O)N[C@@H](CCC(=O)O)C(=O)N[C@@H](CCC(=O)O)C(=O)N[C@@H](CC(C)C)C(=O)N[C@@H](CCC(N)=O)C(=O)N[C@@H](CCCNC(=N)N)C(=O)N[C@@H](Cc1ccc(O)cc1)C(=O)N[C@@H](Cc1ccc(O)cc1)C(=O)N[C@H](C(=O)N[C@@H](CO)C(=O)N[C@@H](CC(C)C)C(=O)N[C@@H](CCCNC(=N)N)C(=O)N[C@@H](Cc1c[nH]cn1)C(=O)N[C@@H](Cc1ccc(O)cc1)C(=O)N[C@@H](Cc1ccc(O)cc1)C(=O)N[C@@H](CC(N)=O)C(=O)N[C@@H](Cc1c[nH]c2ccccc12)C(=O)N[C@@H](CC(C)C)C(=O)N[C@H](C(=O)N[C@@H](CCCNC(=N)N)C(=O)N[C@@H](CCC(N)=O)C(=O)N[C@@H](CCCNC(=N)N)C(=O)N[C@@H](Cc1ccc(O)cc1)C(N)=O)[C@@H](C)O)C(C)C)[C@@H](C)O) [Compound 42]
